Experimental data reported in PMC10397247.

What was measured:
Experiment in all cases: two-hybrid library CCmax;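 note: natural log of median RNA to DNA barcode read ratio; higher means stronger binding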
4H1636-AA = molecular target: T1, 4H1636-AA
T1 chain: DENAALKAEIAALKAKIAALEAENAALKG

4H1867-AA = molecular target: T2, 4H1867-AA; details: mean of both orientations
T2 chain: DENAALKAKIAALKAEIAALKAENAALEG

4H2078-AA = molecular target: T3, 4H2078-AA; details: mean of both orientations
T3 chain: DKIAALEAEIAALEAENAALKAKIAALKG

4H2151-AA = molecular target: T4, 4H2151-AA; details: mean of both orientations
T4 chain: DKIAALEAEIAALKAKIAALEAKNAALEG

4H2165-AA = molecular target: T5, 4H2165-AA; details: mean of both orientations
T5 chain: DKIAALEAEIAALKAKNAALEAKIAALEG

4H2190-AA = molecular target: T6, 4H2190-AA; details: mean of both orientations
T6 chain: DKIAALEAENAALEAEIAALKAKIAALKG

4H2277-AA = molecular target: T7, 4H2277-AA; details: mean of both orientations
T7 chain: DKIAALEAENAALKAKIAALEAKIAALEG

4H234-AA = molecular target: T8, 4H234-AA; details: mean of both orientations
T8 chain: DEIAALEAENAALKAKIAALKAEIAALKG

4H2354-AA = molecular target: T9, 4H2354-AA; details: mean of both orientations
T9 chain: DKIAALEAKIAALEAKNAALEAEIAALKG

4H2393-AA = molecular target: T10, 4H2393-AA; details: mean of both orientations
T10 chain: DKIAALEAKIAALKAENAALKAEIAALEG

4H2466-AA = molecular target: T11, 4H2466-AA; details: mean of both orientations
T11 chain: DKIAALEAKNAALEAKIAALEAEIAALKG

4H2505-AA = molecular target: T12, 4H2505-AA; details: mean of both orientations
T12 chain: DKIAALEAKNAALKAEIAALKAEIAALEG

4H2575-AA = molecular target: T13, 4H2575-AA; details: mean of both orientations
T13 chain: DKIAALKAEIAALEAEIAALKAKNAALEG

4H2617-AA = molecular target: T14, 4H2617-AA; details: mean of both orientations
T14 chain: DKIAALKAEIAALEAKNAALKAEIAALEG

4H2642-AA = molecular target: T15, 4H2642-AA; details: mean of both orientations
T15 chain: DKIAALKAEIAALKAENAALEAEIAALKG

4H2729-AA = molecular target: T16, 4H2729-AA; details: mean of both orientations
T16 chain: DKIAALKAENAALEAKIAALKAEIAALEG

4H2754-AA = molecular target: T17, 4H2754-AA; details: mean of both orientations
T17 chain: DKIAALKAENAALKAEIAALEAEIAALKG

4H2837-AA = molecular target: T18, 4H2837-AA; details: mean of both orientations
T18 chain: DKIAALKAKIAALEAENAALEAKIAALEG

4H2883-AA = molecular target: T19, 4H2883-AA; details: mean of both orientations
T19 chain: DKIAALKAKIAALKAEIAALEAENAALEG

4H2944-AA = molecular target: T20, 4H2944-AA; details: mean of both orientations
T20 chain: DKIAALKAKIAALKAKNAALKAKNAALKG

4H2949-AA = molecular target: T21, 4H2949-AA; details: mean of both orientations
T21 chain: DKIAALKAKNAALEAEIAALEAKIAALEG

4H3112-AA = molecular target: T22, 4H3112-AA; details: mean of both orientations
T22 chain: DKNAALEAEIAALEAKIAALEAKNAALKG

4H317-AA = molecular target: T23, 4H317-AA; details: mean of both orientations
T23 chain: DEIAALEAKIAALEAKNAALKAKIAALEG

4H3343-AA = molecular target: T24, 4H3343-AA; details: mean of both orientations
T24 chain: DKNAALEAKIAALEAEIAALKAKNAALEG

4H335-AA = molecular target: T25, 4H335-AA; details: mean of both orientations
T25 chain: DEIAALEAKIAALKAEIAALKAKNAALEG

4H342-AA = molecular target: T26, 4H342-AA; details: mean of both orientations
T26 chain: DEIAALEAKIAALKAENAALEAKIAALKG

4H3427-AA = molecular target: T27, 4H3427-AA; details: mean of both orientations
T27 chain: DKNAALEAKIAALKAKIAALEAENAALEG

4H3606-AA = molecular target: T28, 4H3606-AA; details: mean of both orientations
T28 chain: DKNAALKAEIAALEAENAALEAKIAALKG

4H3627-AA = molecular target: T29, 4H3627-AA; details: mean of both orientations
T29 chain: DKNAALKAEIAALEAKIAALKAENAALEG

4H3655-AA = molecular target: T30, 4H3655-AA; details: mean of both orientations
T30 chain: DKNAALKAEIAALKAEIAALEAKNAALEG

4H3844-AA = molecular target: T31, 4H3844-AA; details: mean of both orientations
T31 chain: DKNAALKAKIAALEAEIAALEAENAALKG

4H3921-AA = molecular target: T32, 4H3921-AA; details: mean of both orientations
T32 chain: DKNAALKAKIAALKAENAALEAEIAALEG

4H429-AA = molecular target: T33, 4H429-AA; details: mean of both orientations
T33 chain: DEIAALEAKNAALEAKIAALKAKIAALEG

4H454-AA = molecular target: T34, 4H454-AA; details: mean of both orientations
T34 chain: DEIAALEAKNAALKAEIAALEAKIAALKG

4H48-AA = molecular target: T35, 4H48-AA; details: mean of both orientations
T35 chain: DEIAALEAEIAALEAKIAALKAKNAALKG

4H566-AA = molecular target: T36, 4H566-AA; details: mean of both orientations
T36 chain: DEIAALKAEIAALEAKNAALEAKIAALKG

4H605-AA = molecular target: T37, 4H605-AA; details: mean of both orientations
T37 chain: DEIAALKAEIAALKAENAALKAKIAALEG

4H678-AA = molecular target: T38, 4H678-AA; details: mean of both orientations
T38 chain: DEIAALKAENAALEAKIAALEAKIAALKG

4H717-AA = molecular target: T39, 4H717-AA; details: mean of both orientations
T39 chain: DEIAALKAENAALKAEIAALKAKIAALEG

4H780-AA = molecular target: T40, 4H780-AA; details: mean of both orientations
T40 chain: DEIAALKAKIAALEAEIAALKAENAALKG

4H794-AA = molecular target: T41, 4H794-AA; details: mean of both orientations
T41 chain: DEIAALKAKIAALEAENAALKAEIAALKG

4H881-AA = molecular target: T42, 4H881-AA; details: mean of both orientations
T42 chain: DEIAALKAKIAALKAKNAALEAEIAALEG

4H906-AA = molecular target: T43, 4H906-AA; details: mean of both orientations
T43 chain: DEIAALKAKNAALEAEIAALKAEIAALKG

4H993-AA = molecular target: T44, 4H993-AA; details: mean of both orientations
T44 chain: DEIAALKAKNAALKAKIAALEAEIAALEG

interaction score (4H1636-AA): 2.39
interaction score (4H1867-AA): -0.897
interaction score (4H2078-AA): -1.57
interaction score (4H2151-AA): -0.999
interaction score (4H2165-AA): -1.82
interaction score (4H2190-AA): -0.932
interaction score (4H2277-AA): -1.87
interaction score (4H234-AA): -1.95
interaction score (4H2354-AA): -1.49
interaction score (4H2393-AA): -0.706
interaction score (4H2466-AA): -2.07
interaction score (4H2505-AA): -1.47
interaction score (4H2575-AA): -0.963
interaction score (4H2617-AA): -1.46
interaction score (4H2642-AA): -1.33
interaction score (4H2729-AA): -1.23
interaction score (4H2754-AA): -1.42
interaction score (4H2837-AA): -1.5
interaction score (4H2883-AA): -1.16
interaction score (4H2944-AA): -1.81
interaction score (4H2949-AA): -1.16
interaction score (4H3112-AA): -0.658
interaction score (4H317-AA): -1.74
interaction score (4H3343-AA): -1.42
interaction score (4H335-AA): -1.41
interaction score (4H342-AA): -1.29
interaction score (4H3427-AA): -0.846
interaction score (4H3606-AA): -1.17
interaction score (4H3627-AA): -0.519
interaction score (4H3655-AA): -0.763
interaction score (4H3844-AA): -0.519
interaction score (4H3921-AA): -1.8
interaction score (4H429-AA): -1.27
interaction score (4H454-AA): -1.23
interaction score (4H48-AA): -1.07
interaction score (4H566-AA): -1.41
interaction score (4H605-AA): -1.56
interaction score (4H678-AA): -1.1
interaction score (4H717-AA): -0.951
interaction score (4H780-AA): -1.3
interaction score (4H794-AA): -1.68
interaction score (4H881-AA): -1.46
interaction score (4H906-AA): -1.91
interaction score (4H993-AA): -1.52
Binder: DENAALKAEIAALKAKIAALEAENAALKG [4H1636-AA]
